Results reported in the Human Domainome abundance scans (Beltran et al. 2025).
± gives the uncertainty stated by the source.

B1: Integrator complex subunit 12, residues 155 to 213; numbered along this chain, Q96CB8 (parent)
chain: AMEMGLACVVCRQMMVASGNQLVECQECHNLYHRDCHKPQVTDKEANDPRLVWYCARCT

Variants of: B1
Assay: abundance fitness (aPCA) (normalised: wild type 0, dead -1); higher = more abundant; growth selection in yeast, the domain comes from the species named
Settings: Homo sapiens

Row | Variant | abundance fitness
1 | AMEMGLACVVCRQMMVASGNQLVECQECHNLYHRDCHKPQVTDKEANDPRFVWYCARCT | -0.048 ± 0.081
2 | AMEMGLACVVCRQMMVASGNQLVECQECHNLYHRDCHKPQVTDKEANDPRDVWYCARCT | 0.013 ± 0.066
3 | AMEMGLACVVCRQMMVASGNQLVECQECHNLYHRDCHKPQVTDKEANDPRSVWYCARCT | 0.049 ± 0.051
4 | AMEMGLACVVCRQMMVASGNQLVECQECHNLYHRDCHKPQVTDKEANDPRGVWYCARCT | 0.069 ± 0.046
5 | AMEMGLACVVCRQMMVASGNQLVECQECHNLYHRDCHKPQVTDKEANDPRHVWYCARCT | 0.063 ± 0.11
6 | AMEMGLACVVCRQMMVASGNQLVECQECHNLYHRDCHKPQVTDKEANDPRRVWYCARCT | 0.062 ± 0.04
7 | AMEMGLACVVCRQMMVASGNQLVECQECHNLYHRDCHKPQVTDKEANDPRNVWYCARCT | -0.197 ± 0.077
8 | AMEMGLACVVCRQMMVASGNQLVECQECHNLYHRDCHKPQVTDKEANDPRKVWYCARCT | 0.089 ± 0.063
9 | AMEMGLACVVCRQMMVASGNQLVECQECHNLYHRDCHKPQVTDKEANDPRQVWYCARCT | 0.02 ± 0.055
10 | AMEMGLACVVCRQMMVASGNQLVECQECHNLYHRDCHKPQVTDKEANYPRLVWYCARCT | -0.178 ± 0.084
11 | AMEMGLACVVCRQMMVASGNQLVECQECHNLYHRDCHKPQVTDKEANGPRLVWYCARCT | -0.083 ± 0.045
12 | AMEMGLACVVCRQMMVASGNQLVECQECHNLYHRDCHKPQVTDKEANWPRLVWYCARCT | -0.149 ± 0.069
13 | AMEMGLACVVCRQMMVASGNQLVECQECHNLYHRDCHKPQVTDKEANFPRLVWYCARCT | -0.254 ± 0.24
14 | AMEMGLACVVCRQMMVASGNQLVECQECHNLYHRDCHKPQVTDKEANQPRLVWYCARCT | -0.002 ± 0.063
15 | AMEMGLACVVCRQMMVASGNQLVECQECHNLYHRDCHKPQVTDKEANVPRLVWYCARCT | -0.063 ± 0.057
16 | AMEMGLACVVCRQMMVASGNQLVECQECHNLYHRDCHKPQVTDKEANLPRLVWYCARCT | -0.138 ± 0.047
17 | AMEMGLACVVCRQMMVASGNQLVECQECHNLYHRDCHKPQVTDKEANCPRLVWYCARCT | -0.265 ± 0.12
18 | AMEMGLACVVCRQMMVASGNQLVECQECHNLYHRDCHKPQVTDKEANPPRLVWYCARCT | -0.214 ± 0.065
19 | AMEMGLACVVCRQMMVASGNQLVECQECHNLYHRDCHKPQVTDKEANSPRLVWYCARCT | -0.119 ± 0.062
20 | AMEMGLACVVCRQMMVASGNQLVECQECHNLYHRDCHKPQVTDKEANKPRLVWYCARCT | -0.027 ± 0.056
21 | AMEMGLACVVCRQMMVASGNQLVECQECHNLYHRDCHKPQVTDKEANHPRLVWYCARCT | -0.081 ± 0.15
22 | AMEMGLACVVCRQMMVASGNQLVECQECHNLYHRDCHKPQVTDKEANNPRLVWYCARCT | -0.128 ± 0.069
23 | AMEMGLACVVCRQMMVASGNQLVECQECHNLYHRDCHKPQVTDKEANEPRLVWYCARCT | -0.054 ± 0.052

Row | Variant | abundance fitness
24 | AMEMGLACVVCRQMMVASGNQLVECQECHNLYHRDCHKPQVTDKEANIPRLVWYCARCT | -0.187 ± 0.14
25 | AMEMGLACVVCRQMMVASGNQLVECQECHNLYHRDCHKPQVTDKEANTPRLVWYCARCT | 0.016 ± 0.063
26 | AMEMGLACVVCRQMMVASGNQLVECQECHNLYHRDCHKPQVTDKEANMPRLVWYCARCT | -0.085 ± 0.071
27 | AMEMGLACVVCRQMMVASGNQLVECQECHNLYHRDCHKPQVTDKEANRPRLVWYCARCT | -0.154 ± 0.044
28 | AMEMGLACVVCRQMMVASGNQLVECQECHNLYHRDCHKPQVTDKEANDPDLVWYCARCT | -0.017 ± 0.091
29 | AMEMGLACVVCRQMMVASGNQLVECQECHNLYHRDCHKPQVTDKEANDPFLVWYCARCT | -0.126 ± 0.084
30 | AMEMGLACVVCRQMMVASGNQLVECQECHNLYHRDCHKPQVTDKEANDPMLVWYCARCT | -0.028 ± 0.06
31 | AMEMGLACVVCRQMMVASGNQLVECQECHNLYHRDCHKPQVTDKEANDPCLVWYCARCT | -0.104 ± 0.12
32 | AMEMGLACVVCRQMMVASGNQLVECQECHNLYHRDCHKPQVTDKEANDPWLVWYCARCT | -0.206 ± 0.093
33 | AMEMGLACVVCRQMMVASGNQLVECQECHNLYHRDCHKPQVTDKEANDPILVWYCARCT | -0.242 ± 0.089
34 | AMEMGLACVVCRQMMVASGNQLVECQECHNLYHRDCHKPQVTDKEANDPNLVWYCARCT | 0.15 ± 0.12
35 | AMEMGLACVVCRQMMVASGNQLVECQECHNLYHRDCHKPQVTDKEANDPPLVWYCARCT | -0.033 ± 0.059
36 | AMEMGLACVVCRQMMVASGNQLVECQECHNLYHRDCHKPQVTDKEANDPVLVWYCARCT | -0.177 ± 0.067
37 | AMEMGLACVVCRQMMVASGNQLVECQECHNLYHRDCHKPQVTDKEANDPTLVWYCARCT | 0.041 ± 0.056
38 | AMEMGLACVVCRQMMVASGNQLVECQECHNLYHRDCHKPQVTDKEANDPSLVWYCARCT | 0.057 ± 0.059
39 | AMEMGLACVVCRQMMVASGNQLVECQECHNLYHRDCHKPQVTDKEANDPELVWYCARCT | 0.02 ± 0.056
40 | AMEMGLACVVCRQMMVASGNQLVECQECHNLYHRDCHKPQVTDKEANDPGLVWYCARCT | 0.014 ± 0.049
41 | AMEMGLACVVCRQMMVASGNQLVECQECHNLYHRDCHKPQVTDKEANDPHLVWYCARCT | -0.06 ± 0.11
42 | AMEMGLACVVCRQMMVASGNQLVECQECHNLYHRDCHKPQVTDKEANDPALVWYCARCT | 0.014 ± 0.048
43 | AMEMGLACVVCRQMMVASGNQLVECQECHNLYHRDCHKPQVTDKEANDPKLVWYCARCT | 0.025 ± 0.073
44 | AMEMGLACVVCRQMMVASGNQLVECQECHNLYHRDCHKPQVTDKEANDPQLVWYCARCT | -0.059 ± 0.061
45 | AMEMGLACVVCRQMMVASGNQLVECQECHNLYHRDCHKPQVTDKEANDPLLVWYCARCT | -0.068 ± 0.045
